From article PMC7279355 (International Journal of Molecular Sciences, 2020)
Ends that are not written are not given here.

The binders below were run against T1, PD-L1, histidine (His)-tagged (UniProt Q9NZQ7 19-238) (assay: AlphaScreen or HTRF; AlphaLISA kit AL356 HV/C/F (PerkinElmer), competition: biotin-conjugated PD-1 on streptavidin-coated donor beads, His-tagged PD-L1 on anti-His acceptor beads; 2 uL each of inhibitor dilution, PD-L1 (25 nM), PD-1 (25 nM) and the two beads in 10 uL; 25 °C, 90 min; IC50 from sigmoidal fit). Conditions: both partners purified.
T1 construct: PD-L1 (programmed cell death-ligand 1) of the AlphaLISA PD-1/PD-L1 kit; Held on anti-His-conjugated acceptor beads; also called His-tagged PD-L1; programmed cell death-ligand 1; source: bought: PerkinElmer AlphaLISA assay kit (AL356 HV/C/F)
T1 sequence (Q9NZQ7 19-238): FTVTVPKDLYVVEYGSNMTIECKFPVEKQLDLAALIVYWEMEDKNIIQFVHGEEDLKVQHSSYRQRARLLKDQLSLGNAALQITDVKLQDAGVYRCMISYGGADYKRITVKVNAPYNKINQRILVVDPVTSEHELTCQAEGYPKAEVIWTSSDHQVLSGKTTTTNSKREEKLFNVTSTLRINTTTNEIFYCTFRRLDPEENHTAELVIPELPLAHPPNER
QYQ (not fully specified; X (position 2) = biphenyl-conjugated bromotyrosine) [QXQ] was tested, and the IC50 was 1960 µM.
In the case of CYA (not fully specified; X (position 2) = biphenyl-conjugated bromotyrosine) [CXA], the IC50 is reported as 665 µM.
RYN (not fully specified; X (position 2) = biphenyl-conjugated bromotyrosine) [RXN] gave an IC50 of 405 µM.
In the case of SYR (not fully specified; X (position 2) = biphenyl-conjugated bromotyrosine) [SXR], the IC50 is reported as 796 µM.
NYR (not fully specified; X (position 2) = biphenyl-conjugated bromotyrosine) [NXR] gave an IC50 of 982 µM.
CYR (not fully specified; X (position 2) = biphenyl-conjugated bromotyrosine) [CXR] showed an IC50 of 550 µM.
In the case of GYG (not fully specified; X (position 2) = biphenyl-conjugated bromotyrosine) [GXG], the IC50 is reported as 676 µM.
YNL (not fully specified; X (position 1) = biphenyl-conjugated bromotyrosine) [XNL] was tested, and the IC50 was 855 µM.
YNH (not fully specified; X (position 1) = biphenyl-conjugated bromotyrosine) [XNH] gave an IC50 of 313 µM.
YHP (not fully specified; X (position 1) = biphenyl-conjugated bromotyrosine) [XHP] was tested, and the IC50 was 359 µM.
YGG (not fully specified; X (position 1) = biphenyl-conjugated bromotyrosine) [XGG] gave an IC50 of 6500 µM.
For YCSE (not fully specified; X (position 1) = biphenyl-conjugated bromotyrosine) [XCSE], the IC50 was 1560 µM.
In the case of YGGG (not fully specified; X (position 1) = biphenyl-conjugated bromotyrosine) [XGGG], the IC50 is reported as 6770 µM.
For WRYNN (not fully specified; X (position 3) = biphenyl-conjugated bromotyrosine) [WRXNN], the IC50 was 157 µM.
ERYNK (not fully specified; X (position 3) = biphenyl-conjugated bromotyrosine) [ERXNK] showed an IC50 of 15.6 µM.
In the case of WRYNQ (not fully specified; X (position 3) = biphenyl-conjugated bromotyrosine) [WRXNQ], the IC50 is reported as 163 µM.
Binder YRRRR (not fully specified; X (position 1) = biphenyl-conjugated bromotyrosine) [XRRRR] has an IC50 of 436 µM.
In the case of YGGGG (not fully specified; X (position 1) = biphenyl-conjugated bromotyrosine) [XGGGG], the IC50 is reported as 648 µM.
YGGGGG (not fully specified; X (position 1) = biphenyl-conjugated bromotyrosine) [XGGGGG] gave an IC50 of 846 µM.
For Tyr-Tyr-Cys (not fully specified (residue 2)) [YXC], the IC50 was 465 µM.
With WYG (not fully specified; X (position 2) = biphenyl-conjugated bromotyrosine) [WXG] the IC50 was 405 µM.
